Measured values from article PMC2528196.

B1: Srs2 (Saccharomyces cerevisiae S288C) (protein)
chain: MSSNNDLWLHLVSQLNTQQRAAALFDYTRGLQVIAGPGTGKTKVLTSRVAYLILHHHIHPRDIIVTTFTNKAANEMKERLQEMLRGAGVNISELLIGTFHSICLKILYRFGHLVDLQKDWRIIDEKEIDVILDDMIEKVPDQIRDYASSITRKVNLCMPSKNGDEWTIHPKLIKKQISKLKSNAILPEEYILDSNHDAALGYFYQIYQSELSKKNTLDFDDLLMYTFRLLTRVRVLSNIKHVLVDEFQDTNGIQLDLMFLFAKGNHHLSRGMTIVGDPDQSIYAFRNALAHNFLEMGRKCPIEYSTIILVENYRSSQKILNTSEILITQQNKGRQNRAPLRAQFDLDFPPVYMNFPAYFLEAPSLVRELLYLKALPNLFTFNDFAILVRQRRQIKRIESALIEHRIPYKIIRGHSFWDSKETRAMLNLLKLIFSPNDKHAILASLLYPARGLGPATGEKIKNALDTLATDVSCFQILKDISSKKIMLDIPTKGRSVIADFISMIENCQLLLQSTLLGGLSDLFDKLYELSGLKYEYLYKDGKKKNDQLEKSEPNLLNARHKNIELLKNYFLALLSKSESSDKEKNEAIKAATDEAEPIENKVITPKEYLRNFFNSLSLHSDAAEEEESESNKDAKIKREKNGFVTISTIHGAKGLEWPVVFIPGCEEGIIPCVFNDDKKDESEEDEEEDQENSKKDASPKKTRVLSVEDSIDEERRMFFVAQTRAKYLLYLSNTVTVEDVDRPRIASRFLTTDLIKAMSDSQKLFESTNSIKKLYRILNKKPPAEDDKLFSLDQLRKDYNQFIENRRERMIWQGIQMNDVYGIQLSRNKLLGSVSDFTSAADQLRLETQNSIFPQKKLIEKSRPSKINGNYAPKSRVKSPEKRYAPETTSFHSPTKKKVYAPQYVSTTNVPSRQEFHSSTGKNIPFLRREDRSITDISPRSSTRSLKGASPNKTSHMSDDLMRPSPTRKDKVTRNIHFATAGTFRIETQSNVDELHPPEYSNKSGQSLTSSEFSGFSSACSNSDQPTNLIEDINNELDLSDEELLNDISIERRRELLGSKKTKKIKPKTRNRKSKRGDKVKVEEVIDLKSEFEEDDSRNTTAAELLHNPDDTTVDNRPIISNAKFLADAAMKKTQKFSKKVKNEPASSQMDIFSQLSRAKKKSKLNNGEIIVID
B2: forked DNA P1/P2 (dsDNA)
DNA 1: AGAAGGTTTCGAATCAGAGGTAGGTGCCCGGCCTCCAACTTGCCGTATTCCTGGT
DNA 2: ACCAGGAATACGGCAAGTTGGAGGCCGGGCTGGATGGAGACTAAGCTTTGGAAGT

Columns and labels:
[1] = substrate: Nc1ncnc2c1ncn2[C@@H]1O[C@H](COP(=O)(O)OP(=O)(O)OP(=O)(O)O)[C@@H](O)[C@H]1O; assay: purified protein; settings: saturating 56-mer ssDNA, 37°C, pH 7.6, 7 mM MgCl2, 100 mM NaCl
[2] = target: Srs2 (Saccharomyces cerevisiae, UniProt P12954 1-1174); assay: EMSA

| Binder | Km [1] [µM] | kcat [1] [s⁻¹] | binding result [2] |
| --- | --- | --- | --- |
| B1 | 143 | 55.3 | – |
| B2 | – | – | binds |
